Biological target: T1, insulin receptor (IR) of mouse primary hepatocytes (mouse, UniProt P15208 28-748; P15208 753-1372)
T1 construct: whole, on cells; Endogenous receptor on intact primary hepatocytes from wild type or PKCε-/- mice; in cell lysates for the co-precipitation
Assay: co-precipitation from hepatocytes of wild type mice; data not shown

T1 sequence (P15208 28-748 limits assumed, chain 1 of 2): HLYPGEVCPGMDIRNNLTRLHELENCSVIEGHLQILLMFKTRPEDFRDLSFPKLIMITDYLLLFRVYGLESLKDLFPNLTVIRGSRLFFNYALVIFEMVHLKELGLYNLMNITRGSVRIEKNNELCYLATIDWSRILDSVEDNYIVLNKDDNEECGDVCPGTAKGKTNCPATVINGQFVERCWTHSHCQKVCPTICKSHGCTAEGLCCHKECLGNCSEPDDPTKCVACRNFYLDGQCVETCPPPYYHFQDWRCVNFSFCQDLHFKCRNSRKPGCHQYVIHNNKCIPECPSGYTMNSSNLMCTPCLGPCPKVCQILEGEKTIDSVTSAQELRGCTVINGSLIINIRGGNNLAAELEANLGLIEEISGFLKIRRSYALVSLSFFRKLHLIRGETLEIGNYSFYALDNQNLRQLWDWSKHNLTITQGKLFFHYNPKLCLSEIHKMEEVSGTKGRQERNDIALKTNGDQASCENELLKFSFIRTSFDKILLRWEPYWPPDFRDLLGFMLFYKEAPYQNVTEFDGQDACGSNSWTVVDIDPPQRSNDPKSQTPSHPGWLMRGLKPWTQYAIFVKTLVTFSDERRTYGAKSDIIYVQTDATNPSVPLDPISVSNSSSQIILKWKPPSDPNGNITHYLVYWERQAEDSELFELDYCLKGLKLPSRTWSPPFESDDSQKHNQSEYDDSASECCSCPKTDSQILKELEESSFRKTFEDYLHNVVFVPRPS
T1 sequence (P15208 753-1372 limits assumed, chain 2 of 2): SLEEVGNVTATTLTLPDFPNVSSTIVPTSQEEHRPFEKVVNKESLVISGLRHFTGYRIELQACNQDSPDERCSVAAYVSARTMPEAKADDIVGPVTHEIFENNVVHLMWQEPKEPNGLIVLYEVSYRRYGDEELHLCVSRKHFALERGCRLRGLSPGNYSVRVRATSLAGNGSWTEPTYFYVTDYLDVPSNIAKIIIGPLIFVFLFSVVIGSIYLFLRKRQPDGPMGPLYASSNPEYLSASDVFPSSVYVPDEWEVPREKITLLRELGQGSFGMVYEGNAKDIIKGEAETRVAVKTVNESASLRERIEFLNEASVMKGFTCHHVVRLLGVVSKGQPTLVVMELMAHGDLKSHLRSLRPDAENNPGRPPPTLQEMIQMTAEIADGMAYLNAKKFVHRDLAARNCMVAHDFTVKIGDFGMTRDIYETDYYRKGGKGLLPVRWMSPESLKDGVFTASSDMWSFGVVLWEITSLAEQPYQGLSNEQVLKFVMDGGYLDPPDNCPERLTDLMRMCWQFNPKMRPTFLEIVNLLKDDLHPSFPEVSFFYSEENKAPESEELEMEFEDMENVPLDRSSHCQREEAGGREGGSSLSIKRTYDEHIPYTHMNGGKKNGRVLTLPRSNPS

- binding result: no binding
B1: protein kinase C epsilon (PKCε), murine (enzyme)
chain: MVVFNGLLKIKICEAVSLKPTAWSLRHAVGPRPQTFLLDPYIALNVDDSRIGQTATKQKTNSPAWHDEFVTDVCNGRKIELAVFHDAPIGYDDFVANCTIQFEELLQNGSRHFEDWIDLEPEGKVYVIIDLSGSSGEAPKDNEERVFRERMRPRKRQGAVRRRVHQVNGHKFMATYLRQPTYCSHCRDFIWGVIGKQGYQCQVCTCVVHKRCHELIITKCAGLKKQETPDEVGSQRFSVNMPHKFGIHNYKVPTFCDHCGSLLWGLLRQGLQCKVCKMNVHRRCETNVAPNCGVDARGIAKVLADLGVTPDKITNSGQRRKKLAAGAESPQPASGNSPSEDDRSKSAPTSPCDQELKELENNIRKALSFDNRGEEHRASSATDGQLASPGENGEVRPGQAKRLGLDEFNFIKVLGKGSFGKVMLAELKGKDEVYAVKVLKKDVILQDDDVDCTMTEKRILALARKHPYLTQLYCCFQTKDRLFFVMEYVNGGDLMFQIQRSRKFDEPRSRFYAAEVTSALMFLHQHGVIYRDLKLDNILLDAEGHCKLADFGMCKEGIMNGVTTTTFCGTPDYIAPEILQELEYGPSVDWWALGVLMYEMMAGQPPFEADNEDDLFESILHDDVLYPVWLSKEAVSILKAFMTKNPHKRLGCVAAQNGEDAIKQHPFFKEIDWVLLEQKKIKPPFKPRIKTKRDVNNFDQDFTREEPILTLVDEAIIKQINQEEFKGFSYFGEDLMP
notes: Endogenous PKCε in hepatocytes of wild type mice
